According to publication PMC8822174, “Evidence for the Rapid and Divergent Evolution of Mycoplasmas: Structural and Phylogenetic Analysis of Enolases” (Frontiers in Molecular Biosciences, 2021):

Molecular target: the molecule itself
Assay: native gel or EMSA

B1: Mycoplasma bovis enolase (enzyme)
chain: MPIIERIQAREILDSRGNPTVQVEVTTDYEITGVANVPSGASTGSREALELRDKGTKYEGNWFGGKGVMTAVDNVNEKIAPELIGMSVFDQRAIDKLMIELDGTATKSKLGANAILGVSLAVARAAATELGMPLYRYIGGANAHTLPLPMLNVLNGGEHASNTVDFQEFMIMPVGAKSLREALQMANKVFHNLAKLLKKAGYGTQVGDEGGFAPNCKSHEEVLDYLVEAIKVAGYTPATSGKNAIAIALDAACSELYDENSKKYTFKKLKQAIAEKRSGFEHLDNVKLEYTTDELIEYFGKLIDKYPIISIEDGLAESDWEGFAKMTAKFGSKVQIVGDDLTVTNPKLLEKAIEQKSMNAILIKLNQIGSLSETMDAINKAQKANMACVVSHRSGETEDTTIADLAVAFNTGQIKTGSMSRTDRIAKYNRLLVIEEELGEQSEFEGSKAFYNIK
notes: also called Mb Eno; M. bovis Eno
- stoichiometry N: 8

B2: Mycoplasma pneumoniae enolase (enzyme)
chain: MSAQTGTDLFKIADLFAYQVFDSRGFPTVACVVKLASGHTGEAMVPSGASTGEKEAIELRDGDPKAYFGKGVSQAVQNVNQTIAPKLIGLNATDQAAIDALMIQLDGTPNKAKLGANAILAVSLAVAKAAASAQKTSLFKYLANQVMGLNKTEFILTVPMLNVINGGAHADNNIDFQEFMIMPLGANSMHQALKMASETFHALQKLLKQRGLNTNKGDEGGFAPNLKLAEEALDLMVEAIKAAGYQPGSDIAIALDVAASEFYDDTTKRYVFKKGIKAKILDEKEWSLTTAQMIAYLKKLTEQYPIISIEDGLSEHDWEGMETLTKTLGQHIQIVGDDLYCTNPAIAEKGVAHKATNSILIKLNQIGTLTETIKAINIAKDANWSQVISHRSGETEDTTIADLAVAACTGQIKTGSMSRSERIAKYNRLLQIELELGNNAKYLGWNTFKNIKPQKA
notes: also called Mp Eno; M. pneumoniae Eno
- stoichiometry N: 2
